According to patent US6348573B1, “Compositions and methods for identifying apoptosis signaling pathway inhibitors and activators” (The Regents of the University of Michigan, priority 1998, dated 2002):

B1: CIDE-B: cell death-inducing DFF45-like effector B, mouse protein of 219 amino acids (protein, listed as Mus musculus)
chain: MEYLSAFNPNGLLRSVSTVSSELSRRVWNSAPPPQRPFRVCDHKRTVRKGLTAASLQELLDKVLETLLLRGVLTLVLEEDGTAVDSEDFFQLLEDDTCLMVLEQGQSWSPKSGMLSYGLGREKPKHSKDIARITFDVYKQNPRDLFGSLNVKATFYGLYSMSCDFQGVGPKRVLRELLRGTSSQLQGLGHMLLGISSTLRHVVEGADRWQWHGQRHLHS
B2: DFF45: 45 kDa subunit of the DNA fragmentation factor (protein, UniProt O00273 1-331, looked up)
DNA fragmentation factor …: MEVTGDAGVPESGEIRTLKPCLLRRNYSREQHGVAASCLEDLRSKACDILAIDKSLTPVTLVLAEDGTIVDDDDYFLCLPSNTKFVALASNEKWAYNNSDGGTAWISQESFDVDETDSGAGLKWKNVARQLKEDLSSIILLSEEDLQMLVDAPCSDLAQELRQSCATVQRLQHTLQQVLDQREEVRQSKQLLQLYLQALEKEGSLLSKQEESKAAFGEEVDAVDTGISRETSSDVALASHILTALREKQAPELSLSSQDLELVTKEDPKALAVALNWDIKKTETVQEACERELALRLQQTQSLHSLRSISASKASPPGDLQNPKRARQDPT

Columns and labels:
293T cells [1] = assay: Apoptosis assay, CIDE transfection; assay type: cell-based, human; conditions: 293T cells
Procedure: Apoptosis Assays, fluorescence staining of nuclear DNA and DNA fragmentation assay: 5×10^5 293T cells were co-transfected with 0.2 μg of pcDNA3-β-gal plus each expression plasmid in triplicate by the calcium phosphate method as reported [N. Inohara et al, “CLARP, a death effector domain-containing protein interacts with caspase-8 and regulates apoptosis,” Proc. Natl. Acad. Sci. USA 94:10717-10722 (1997a)].
MCF7 were cotransfected with vector control or CIDE-A and β-galactosidase-expressing reporter construct by Lipofectamine (Gibco BRL) according to the manufacturer's instructions. In some experiments, 20 μM zVAD-fmk (benzyloxycarbonyl-Val-Ala-Asp-(OMe)-fluoromethylketone), zFA-fmk (benzyloxycarbonyl-Phe-Ala-(OMc)-fluoromethylketone) and zDEVD-fmk (benzyloxycarbonyl-Asp-Glu-Val-Asp-(OMe)-fluoromethylketone) were added into medium at 8 hr after transfection. zFA-fmk, zVAD-fmk and zDEVD-fmk were obtained from Enzyme Systems. At 24 hours after transfection, cells were fixed, stained for β-galactosidase as described [N. Inohara et al., “CLARP, a death effector domain-containing protein interacts with caspase-8 and regulates apoptosis,” Proc. Natl. Acad. Sci. USA 94:10717-10722 (1997a)] and assayed for morphological features of apoptosis. At least 300 hundred blue-staining cells were counted. Statistical significance was determined by one-way ANOVA followed by Student-Neuman-Keuls post-doc comparisons.
(§1) Nuclear staining with acridine-orange was performed as described [N. Inohara et al., “harakiri, a novel regulator of cell death, encodes a protein that activates apoptosis and interacts selectively with survival-promoting proteins Bcl-2 and Bcl-XL.,” EMBO J. 16:1686-1694 (1997b)]. Genomic DNA was extracted and analyzed for DNA fragmentation as described [X. Liu et al., “Apaf-1, a human protein homologous to C. elegans CED-4, participates in cytochrome c-dependent activation of caspase-3,” Cell 90:405-413 (1997)].

SHEP cells = assay: Apoptosis in SHEP cells; assay type: cell-based; conditions: data not shown
293T cells [2] = assay: DNA fragmentation assay; assay type: cell-based, human; conditions: co-expression
Procedure: as §1

Row | Molecule | induction of apoptosis (killing) of 293T cells by expression (293T cells [1]) | induction of apoptosis in SHEP cells (SHEP cells) | apoptosis induced by CLARP (293T cells [1]; co-expression) | apoptosis induced by Fas (293T cells [1]; co-expression) | apoptosis of the CIDE-A (108-199) mutant (293T cells [1]; co-expression) | killing activity of CIDE-A (293T cells [1]; co-expression) | killing activity of CIDE-B (293T cells [1]; co-expression) | DNA fragmentation induced by CIDE-A (293T cells [2])
1 | B1 | induced significant killing of 293T cells in a dose dependent manner | induced apoptosis |  |  |  |  |  | 
2 | B2 | did not induce apoptosis |  | inhibited | inhibited | not inhibited | inhibited significantly | inhibited significantly | inhibited
